Assay [1] addresses T1, Human CLEC12A-His (human, UniProt Q5QGZ9 65-265).
T1 construct: Recombinant soluble protein made in house (Dragonfly Tx); The hCLEC12A spot of the HuProt array is written under this molecule as well; also called hCLEC12A-His; hCLEC12A; not shown: His tag
T1 sequence: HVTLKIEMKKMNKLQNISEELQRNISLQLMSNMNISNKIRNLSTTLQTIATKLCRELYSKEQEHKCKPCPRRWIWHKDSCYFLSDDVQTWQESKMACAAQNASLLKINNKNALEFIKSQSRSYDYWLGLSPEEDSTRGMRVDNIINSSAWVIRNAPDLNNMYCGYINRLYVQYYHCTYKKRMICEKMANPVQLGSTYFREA
Put plainly: SPR Biacore 8K 37 C; TriNKET captured on anti-hFc chip, hCLEC12A-His as analyte; 1:1 fit; after 0.02% H2O2 24 h, n=2. Background: In SPR one partner is held on a chip, and binding of the other changes the refractive index at the surface.

Assay [2] deals with T1, Human CLEC12A-His. Put plainly: SPR Biacore 8K 37 C; TriNKET captured on anti-hFc chip, hCLEC12A-His as analyte; 1:1 fit; after 4 wks 25 C in CST pH 7.0, n=2.
Assay [3] addresses T2, mFc-hNKG2D (human, UniProt P26718 73-216).
T2 construct: extracellular domain; Made in house (Dragonfly Tx); the order of tag and ECD follows the name mFc-hNKG2D; also called mFc-tagged human NKG2D; not shown: mouse Fc tag
T2 sequence (looked up): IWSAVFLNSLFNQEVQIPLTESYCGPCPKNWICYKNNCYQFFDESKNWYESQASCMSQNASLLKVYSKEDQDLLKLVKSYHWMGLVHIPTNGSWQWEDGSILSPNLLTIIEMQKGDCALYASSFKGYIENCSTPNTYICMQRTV
Put plainly: SPR Biacore 8K 37 C; mFc-hNKG2D captured on anti-mFc chip, TriNKET as analyte; steady state fit; after 4 wks 40 C in phosphate/citrate/NaCl pH 7.8, n=2.

Assay [4] addresses T1, Human CLEC12A-His. Kind of assay: SPR Biacore 8K 37 C; TriNKET captured on anti-hFc chip, hCLEC12A-His as analyte; 1:1 fit; control sample, n=2.
The target of assay [5] is T2, mFc-hNKG2D. Kind of assay: SPR Biacore 8K 37 C; mFc-hNKG2D captured on anti-mFc chip, TriNKET as analyte; 1:1 kinetic fit; after low pH hold, n=3.
The target in a further assay is T3, Human CD32b (FcγRIIb) (human, UniProt P31994 46-217, limits assumed, biotinylated).
T3 construct: Bought recombinant receptor; also called hFcγRIIb; CD32b (FcγR2b)
T3 sequence (looked up): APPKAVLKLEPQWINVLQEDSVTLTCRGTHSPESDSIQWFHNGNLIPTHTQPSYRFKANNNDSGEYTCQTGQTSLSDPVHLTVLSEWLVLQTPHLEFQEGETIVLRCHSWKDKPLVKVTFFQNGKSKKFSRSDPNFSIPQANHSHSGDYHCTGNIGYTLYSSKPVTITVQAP
Kind of assay: SPR 25C, average.

Assay [6] deals with T4, Human CLEC12A expressed on cells (Ba/F3-hCLEC12A, PL21, HL60) (human, UniProt Q5QGZ9 1-265).
T4 sequence: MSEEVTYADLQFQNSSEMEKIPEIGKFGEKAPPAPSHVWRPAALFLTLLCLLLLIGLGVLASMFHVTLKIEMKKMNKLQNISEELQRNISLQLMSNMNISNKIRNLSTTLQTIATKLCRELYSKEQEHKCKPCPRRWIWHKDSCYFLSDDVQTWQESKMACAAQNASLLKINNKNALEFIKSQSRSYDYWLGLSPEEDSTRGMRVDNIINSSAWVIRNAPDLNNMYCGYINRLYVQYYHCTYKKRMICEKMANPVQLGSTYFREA
Kind of assay: cell-based or functional assay.

Assay [7] deals with T5, Human CLEC12A-His (recombinant, K244 WT) (human, UniProt Q5QGZ9 65-265).
T5 construct: Made in house (Dragonfly Tx); also called hCLEC12A; hCLEC12A-His; not shown: His tag
T5 sequence: T1 sequence
Kind of assay: SPR, two-state fit (ka1); fully purified protein after low pH hold.

The target of assay [8] is T4, Human CLEC12A expressed on cells …. Put plainly: cell-based or functional assay. This is another data set of the same source.
For assay [9], the target named is T5, Human CLEC12A-His (recombinant, K244 WT). Put plainly: SPR, two-state fit (ka1); after 4 wks 40C in HST pH 6.0.
Description: (§1) Briefly, human Fc specific antibodies were covalently immobilized at a density ˜8000-10000 resonance units (RU) on carboxy methyl dextran matrix of a CM5 biosensor chip via amine-coupling chemistry to create an anti-hFc IgG chip. […] Association was monitored for 300 seconds and dissociation was monitored for 600 seconds. Surfaces were regenerated between cycles with three pulses of 10 mM glycine-HCl, pH 1.7 injected for 20 seconds at 100 μl/min. HBS-EP+ (1×) with 0.1 mg/ml BSA was used as running buffer throughout the experiment. Experiments were performed at physiological temperature of 37° C. To obtain kinetic rate constants and overall binding affinity, double-referenced data were fit to a two-state kinetic model using Biacore 8K Insight Evaluation software (Cytiva).
The target is the same in assay [10]. Kind of assay: SPR, two-state fit (ka1); control sample.
Description: as §1
The target is the same in assay [11]. Kind of assay: SPR, two-state fit (kd1); control sample.
Description: as §1
The next assay concerns the target T6, Human CD16a F158 (human, UniProt P08637 17-208, biotinylated).
T6 construct: Bought recombinant receptor; also called hFcγRIIIa F158
Put plainly: SPR, steady state fit.

The next assay addresses T7, Cynomolgus CD16 (cynomolgus monkey, UniProt Q8SPW2 17-208, biotinylated).
T7 construct: Bought recombinant receptor; also called cFcγRIII; Cynomolgus FcγRIII
Put plainly: SPR, steady state fit.

A further assay deals with T8, recombinant human CD64 (human, UniProt P12314 16-288, biotinylated).
T8 construct: also called hFcγRI; hCD64
Kind of assay: SPR 25C, kinetic fit.

The target in assay [12] is T9, recombinant human CLEC12A-His (human, UniProt Q5QGZ9 65-265).
T9 construct: also called hCLEC12A-His; hCLEC12A
T9 sequence: T1 sequence
Put plainly: SPR 37C, TriNKET captured on anti-hFc.
Description: Briefly, human Fc specific antibodies were covalently immobilized at a density of about 8000-10000 resonance units (RU) on carboxy methyl dextran matrix of a CM5 biosensor chip to create an anti-hFc IgG chip. […] Association was monitored for 300 seconds, and dissociation was monitored for 900 seconds. Surfaces were regenerated between cycles with three pulses of 10 mM glycine-HCl (pH 1.7) injected for 20 seconds at 100 μL/min.

Positions count from the first letter of the chain named. Numbers in names are those of the source. Where “and” joins values, the source holds several entries; their conditions need not be identical. Equal entries are not always repeated.

T6 sequence (P08637 17-208 limits assumed): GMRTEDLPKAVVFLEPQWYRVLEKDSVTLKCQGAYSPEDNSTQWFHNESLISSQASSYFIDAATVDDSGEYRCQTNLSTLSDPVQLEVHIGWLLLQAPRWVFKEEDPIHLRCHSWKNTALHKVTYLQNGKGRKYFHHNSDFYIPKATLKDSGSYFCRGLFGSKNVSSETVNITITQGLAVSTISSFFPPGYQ
T7 sequence (Q8SPW2 17-208 limits assumed): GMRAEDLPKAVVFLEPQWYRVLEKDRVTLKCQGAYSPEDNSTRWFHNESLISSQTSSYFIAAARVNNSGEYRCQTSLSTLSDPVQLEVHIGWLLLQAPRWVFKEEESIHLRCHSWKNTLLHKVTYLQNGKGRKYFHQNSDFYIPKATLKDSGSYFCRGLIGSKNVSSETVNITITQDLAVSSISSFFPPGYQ
T8 sequence (P12314 16-288 limits assumed): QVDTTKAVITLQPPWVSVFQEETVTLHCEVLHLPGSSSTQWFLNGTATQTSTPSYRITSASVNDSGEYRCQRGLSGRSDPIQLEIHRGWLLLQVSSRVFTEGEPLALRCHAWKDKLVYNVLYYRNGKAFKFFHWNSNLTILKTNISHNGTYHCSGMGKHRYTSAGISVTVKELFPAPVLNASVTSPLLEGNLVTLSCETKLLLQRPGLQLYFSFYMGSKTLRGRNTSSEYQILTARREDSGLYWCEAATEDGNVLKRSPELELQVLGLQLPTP
Description for recombinant human CD64: Human and cyno CD64, high and low affinity alleles of CD16a (V158 and F158, respectively), two alleles of CD32a (H131 and R131), CD16b, CD32b and cynomolgus CD16 were captured via biotin on a primed Biacore chip, prepared according to the manufacturer's instructions.
For no-signal reference, a 0 nM blank cycle at the start of each concentration series and receptor free chip surface were used. Each experimental cycle included association, dissociation and regeneration steps. All steps were executed at a flow rate of 30 μL/min and at 25° C.

B1: F3'-1602 TriNKET (bispecific antibody, human IgG1, kappa)
chain: QLQLQESGPGLVKPSETLSLTCTVSGFSLTNYGLHWIRQPPGKCLEWIGVIWSGGKTDYNPSLKSRVTISKDTSKNQFSLKLSSVQAADTAVYYCAKYDYDDSLDYWGQGTLVTVSSGGGGSGGGGSGGGGSGGGGSDIQMTQSPSSLSASVGDRVTITCHASQNINFWLSWYQQKPGKAPKLLIYEASNLHTGVPSRFSGSGSGTRFTLTISSLQPEDIATYYCQQSHSYPLTFGCGTKLEIKGSDKTHTCPPCPAPELLGGPSVFLFPPKPKDTLMISRTPEVTCVVVDVSHEDPEVKFNWYVDGVEVHNAKTKPREEQYNSTYRVVSVLTVLHQDWLNGKEYKCKVSNKALPAPIEKTISKAKGQPREPRVYTLPPCRDELTKNQVSLTCLVKGFYPSDIAVEWESNGQPENNYKTTPPVLVSDGSFTLYSKLTVDKSRWQQGNVFSCSVMHEALHNHYTQKSLSLSPG
heavy: EVQLVESGGGLVKPGGSLRLSCAASGFTFSSYSMNWVRQAPGKGLEWVSSISSSSSYIYYADSVKGRFTISRDNAKNSLYLQMNSLRAEDTAVYYCARGAPIGAAAGWFDPWGQGTLVTVSSASTKGPSVFPLAPSSKSTSGGTAALGCLVKDYFPEPVTVSWNSGALTSGVHTFPAVLQSSGLYSLSSVVTVPSSSLGTQTYICNVNHKPSNTKVDKKVEPKSCDKTHTCPPCPAPELLGGPSVFLFPPKPKDTLMISRTPEVTCVVVDVSHEDPEVKFNWYVDGVEVHNAKTKPREEQYNSTYRVVSVLTVLHQDWLNGKEYKCKVSNKALPAPIEKTISKAKGQPREPQVCTLPPSRDELTENQVSLTCLVKGFYPSDIAVEWESNGQPENNYKTTPPVLDSDGSFFLYSWLTVDKSRWQQGNVFSCSVMHEALHNHYTQKSLSLSPG
light: DIQMTQSPSSVSASVGDRVTITCRASQGISSWLAWYQQKPGKAPKLLIYAASSLQSGVPSRFSGSGSGTDFTLTISSLQPEDFATYYCQQGVSFPRTFGGGTKVEIKRTVAAPSVFIFPPSDEQLKSGTASVVCLLNNFYPREAKVQWKVDNALQSGNSQESVTEQDSKDSTYSLSSTLTLSKADYEKHKVYACEVTHQGLSSPVTKSFNRGEC
notes: Trispecific F3' format: CLEC12A scFv-Fc paired with NKG2D Fab-Fc; Stressed and control samples of the stability studies are the same molecule; also called AB0237
For the molecule B1, the dissociation constant (Kd) is 1.1 nM with Human CLEC12A-His [1]; 0.91 nM in the assay with Human CLEC12A-His [2]; 872 nM with mFc-hNKG2D [3]; 1.2 nM in the assay with Human CLEC12A-His [4]; 671 nM with mFc-hNKG2D [5]. For the same molecule, the koff in the assay with Human CLEC12A-His [1] was 0.00087 s⁻¹; with Human CLEC12A-His [2], 0.000719 s⁻¹; with Human CLEC12A-His [4], 0.000933 s⁻¹; in the assay with mFc-hNKG2D [5], 0.139 s⁻¹. In addition, the kon with Human CLEC12A-His [1] is 806000 M⁻¹ s⁻¹; with Human CLEC12A-His [2], 788000 M⁻¹ s⁻¹; in the assay with Human CLEC12A-His [4], 779000 M⁻¹ s⁻¹; with mFc-hNKG2D [5], 207000 M⁻¹ s⁻¹.

B2: AB0089 TriNKET (bispecific antibody, human IgG1, kappa)
chain: B1 chain with S53V, K56A, K71V, Y98G, D101G, S103T, R207D, I220F
heavy: B1 heavy
light: B1 light
notes: F3' format heterodimer of three chains; human IgG1 Fc with EW-RVT and Y349C/S354C mutations; also called AB0089 Lot AB0089-002; CLEC12A TriNKET AB0089
Consider B2, for which the Kd with Human CD32b (FcγRIIb) amounted to 6300 nM. In assay [6], the “EC50, KHYG-1-CD16aV mediated cytotoxicity, HL60 cells” value was 0.27 nM and the “EC50, KHYG-1-CD16aV mediated cytotoxicity, PL21 cells” value was 0.16 nM. Also, the kon in assay [7] was 1.02e+07 M⁻¹ s⁻¹. Besides, in [8], the “EC50, KHYG1-CD16aV cytotoxicity assay; after forced oxidation” value was determined as 0.16 nM and the “EC50, KHYG1-CD16aV cytotoxicity assay; control sample” value was 0.11 nM. In assay [9], the kon turned out to be 7.91e+06 M⁻¹ s⁻¹. Besides, in assay [10], the kon was 1.01e+07 M⁻¹ s⁻¹. For the same molecule, in [11], the koff came out at 0.042 s⁻¹.

B3: AB0192 TriNKET (other)
chain: EVQLVESGGGVVQPGGSLRLSCAASGFTFNAFGMHWVRQAPGKCLEWVAFISSGSTSIYYANTVKGRFTISRDNSKNTLYLQMNSLRAEDTAVYYCARDGYPTGGAMDYWGQGTSVTVSSGGGGSGGGGSGGGGSGGGGSDIQMTQSPSSLSASVGDRVTITCKASQDIYNYLSWFQQKPGKAPKPLIYRANILVSGVPSRFSGSGSGQDYTFTISSLQPEDIATYYCLQFDAFPFTFGCGTKLEIKGSDKTHTCPPCPAPELLGGPSVFLFPPKPKDTLMISRTPEVTCVVVDVSHEDPEVKFNWYVDGVEVHNAKTKPREEQYNSTYRVVSVLTVLHQDWLNGKEYKCKVSNKALPAPIEKTISKAKGQPREPRVYTLPPCRDELTKNQVSLTCLVKGFYPSDIAVEWESNGQPENNYKTTPPVLVSDGSFTLYSKLTVDKSRWQQGNVFSCSVMHEALHNHYTQKSLSLSPG
heavy: B1 heavy
light: B1 light
notes: the condition stands under assay; also called AB0192 Lot AB0192-005
For the molecule B3, the Kd with Human CD16a F158 was 773 nM and 634 nM and 693 nM and 620 nM; with Cynomolgus CD16, 203 nM and 205 nM and 204 nM.

B4: F3'-1602 TriNKET (other)
chain: B1 chain
heavy: B1 heavy
light: B1 light
notes: CLEC12A scFv-Fc, NKG2D A49MI Fab-Fc, human IgG1 Fc; also called AB0237
In the case of B4, in the assay with recombinant human CD64, the Kd was 5.2 nM and 5.3 nM; the koff was 0.00027 s⁻¹ and 0.00028 s⁻¹ and 0.00026 s⁻¹; the kon was 53000 M⁻¹ s⁻¹ and 52000 M⁻¹ s⁻¹ and 51000 M⁻¹ s⁻¹. In [12], the equilibrium dissociation constant (Kd) was 0.58 nM and 0.59 nM and 0.57 nM and 0.6 nM; the koff is 0.000494 s⁻¹ and 0.000489 s⁻¹ and 0.000499 s⁻¹; the kon was 854000 M⁻¹ s⁻¹ and 833000 M⁻¹ s⁻¹ and 863000 M⁻¹ s⁻¹ and 826000 M⁻¹ s⁻¹.

The Kd is the equilibrium constant for the complex coming apart. A word on the koff: it is a measure of how fast the partners let go of each other. As usually defined, the kon is the second-order rate constant of association.

(Values after patent US20220119534A1 (DRAGONFLY THERAPEUTICS, published 2022).)
